Literature values as cited in paper PMC11195831.

Molecular target: PD-1 (Homo sapiens) (UniProt Q15116)
Assay: SPR

Sequence of PD-1 (Homo sapiens) (Q15116 25-170): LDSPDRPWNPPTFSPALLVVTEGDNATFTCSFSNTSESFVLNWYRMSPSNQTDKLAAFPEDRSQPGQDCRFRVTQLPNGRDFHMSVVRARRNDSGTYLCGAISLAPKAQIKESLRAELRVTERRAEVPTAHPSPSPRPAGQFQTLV

| Substance | Kd |
| --- | --- |
| Dostarlimab | 0.3 nM |
| Retifanlimab | 0.6 nM |
